Data published in patent US20160304625A1.

Target: mIgM proximal domain peptide conjugated to keyhole limpet hemocyanin (human)
Experiment: ELISA direct binding, mIgM-PD-KLH

- ELISA reading: 0.1
Substance: Control mAb (antibody)
